Experiment: yeast display, Sf9 membrane polyspecificity reagent, FACS + sequencing; frameworks hold sequencing errors
How it was run: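 Synthetic nanobody libraries on Saccharomyces cerevisiae BJ5465 were galactose-induced for 36–48 hours, stained 1 hour at 4 °C with 10% biotinylated, detergent-solubilized Sf9 membrane reagent and enriched on streptavidin microbeads. FACS then separated cells into low and high (top ~1%) gates by anti-HA (expression) and streptavidin (reagent binding) fluorescence. Genes were colony-PCR amplified, MiSeq 2 × 250 sequenced and CDR-length filtered. A clone's polyreactivity label is that of its gate of origin.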

Row | Sequence | polyreactivity (PSR sort gate)
1 | QVQLVESGGGLVQAGGSLRLSCAASGSTFSDYAMGWYRQAPGKERELVAAISRRGGSTYYADSVKGRFTISRDNAKNTVYLQMNSLKPEDTAVYYCAKAAYPWTRMEYWGQGTQVTVSS | high polyreactivity
2 | QVQLVESGGGLVQAGGSLRLSCAASGSTFSDYVMGWYRQAPGKERELVAAISWSGDRTYYADSVKGRFTISRDNAKNTFYLQMNSLKPEDTAVYYCAAEYAPSDPSYYYGYDYWGQGTQVTVSS | high polyreactivity
3 | QVQLVESGGGLVQAGGSLRLSCAASGSTFSENAMGWYRQAPGKERELVAAISWGGGSTYYADSVKGRFTISRDYAKNTVYLQMNSLKPEDTAVYYCNADVFDDYGYFESDYWGQGTQVTVSS | low polyreactivity
4 | QVQLVESGGGLVQAGGSLRLSCAASGSTFSFNAMGWYRQAPGKERELVAAIRWSGGSTYYADSVKGRFTISRDNAKNTVYLQMNSLKPEDTAVYYCATYWKGGRPPYRYYYWGQGTQVTVSS | high polyreactivity
5 | QVQLVESGGGLVQAGGSLRLSCAASGSTFSFNDMGWYRQAPGKERELVADISWSGDTTYADSVKGRFTISRDNAKKTVYLQMNSLKPEDTGVYYCDADRHRYQGYTYDYWGQGTQVTVSS | high polyreactivity
6 | QVQLVESGGGLVQAGGSLRLSCAASGSTFSFYAMGWYRQAPGKERELVAAIRAGTRTYYADSVKGRFTISRDNAKNTVYLQMNSLKPEDTAVYYCAATRRRYPYYYWGQGTQVTVSS | high polyreactivity
7 | QVQLVESGGGLVQAGGSLRLSCAASGSTFSGYAMGWYRQAPGKEREFVATISISGGSTYYADSVKGRFTISRDNAKNTVYLQMNSLKPEDTAVYYCNADYYFSWGSIVDYWGQGTQVTVSS | low polyreactivity
8 | QVQLVESGGGLVQAGGSLRLSCAASGSTFSGYAMGWYRQAPGKERELVAAISYSGGGTYYEDSVKGRFTISRDNAKNTVYLQMNSLKPEDTAVYYCATLGSLRYYWPGYDYWGQGTQVTVSS | low polyreactivity
9 | QVQLVESGGGLVQAGGSLRLSCAASGSTFSGYAMGWYSQAPGKERELVAAISWSGGRTYYADSVNGRFTISRDNAKNTVYLQMNSLKPEDTAVYYCDAVRKSAYEYWGQGTQVTVSS | high polyreactivity
10 | QVQLVESGGGLVQAGGSLRLSCAASGSTFSIYAMGWYRQAPGKERELVAAITSDGSTYYADSVKGRFTISRDNAKNTVYLQMNSLKPEDTAVYYCAADWWYGWVSYEYWGQGTQVTVSS | high polyreactivity
11 | QVQLVESGGGLVQAGGSLRLSCAASGSTFSKNAMGWYRPAPGKERELVAAIRSRGGSTYYADSVKGRFTISRDNAKNTVYLQMNSLKPEDTAVYYCAAQYFWYVYSYDYWGQGTQVTVSS | high polyreactivity
12 | QVQLVESGGGLVQAGGSLRLSCAASGSTFSKYAMGWYRQAPGKERELEAAITRTGGRTYYADSVKGRFTISRDNANNTVYLQMNSLKPEDTAVYYCAASATFWGQGTQVTVSS | high polyreactivity
13 | QVQLVESGGGLVQAGGSLRLSCAASGSTFSKYAMGWYRQAPGKERELVAAINYGGTSTYYADSVKGRFTISRDNAKNTVYLQMNSLKPEDTAVYYCAVIYRRLYTGGQNPYDYWGQGTQVTVSS | high polyreactivity
14 | QVQLVESGGGLVQAGGSLRLSCAASGSTFSKYAMGWYRQAPGKERELVAAISRSGGNTYYADSVKGRFTISRDNAKNTVYLQMNSLKPEDTAVYYCATTLYSYSTGRYRLDYWGQGTQVTVSS | high polyreactivity
15 | QVQLVESGGGLVQAGGSLRLSCAASGSTFSLNAMGWYRQAPGKERELVAAISNVGDTYYADSVKGRFTISRDNAKNTVYLQMNSLKPEDTAVYYCAADGASYYYEYDYWGQGTQVTVSS | low polyreactivity
16 | QVQLVESGGGLVQAGGSLRLSCAASGSTFSLYARGWYRQAPGKETELVAAITRGGNTYYADSVKGRFTISRDNAKNTVYLQMNSLKPEDTAVYYCNAYYYQFRGIRVSGGYWGQGTQVTVSS | high polyreactivity
17 | QVQLVESGGGLVQAGGSLRLSCAASGSTFSLYDMGWYRQAPGKERELVAAISYSGGSTYYADSVKGRFTISRDNAKNTVYLQMNSLKPEDTAVFYCATRLFYPRFFYWGQGTQVTVSS | high polyreactivity
18 | QVQLVESGGGLVQAGGSLRLSCAASGSTFSNNAMGWYRQAPGNERELVAAISRSGGSTYYADSVKGRFTISRDNAKNTVYLQMNSLKPEDTAVYYCAVSPRYYRNGGAHLQYDYWGQGTHVTVSS | high polyreactivity
19 | QVQLVESGGGLVQAGGSLRLSCAASGSTFSNNTMGWYRQAPGKERELVAAISWRGTRTYYADSVKGRFTISRDNAKNTVYLQMNSLKPEDTAVYYCNKLPTYPDYGYDSWGQGTQVTVSS | high polyreactivity
20 | QVQLVESGGGLVQAGGSLRLSCAASGSTFSPNAMGWYRQAPGKERELVAAISGSGGSTYYADSVKGRFTISRDNAKNTVYLQMNSLKPEDTAVYYCAADSYYDGDYWGQGTQVTVSS | low polyreactivity
21 | QVQLVESGGGLVQAGGSLRLSCAASGSTFSPNAMGWYRQAPGKERELVAAITWSGGSNTYADSVKGRFTISRDNAKNTVYLQMNSLKPEDTAVYYCAADTKYDNDYWGQGTQVTVSS | low polyreactivity
22 | QVQLVESGGGLVQAGGSLRLSCAASGSTFSPYAMGWYRQAPGKERELVAAITRSGSSTYYADSVKGRFTISRDNAKNTVYLQMNSLKPEDTAVYYCAADTGVTRSYRYTSWRIKYESWGQGTQVTVSS | low polyreactivity

Row | Sequence | polyreactivity (PSR sort gate)
23 | QVQLVESGGGLVQAGGSLRLSCAASGSTFSRNAMGWYRQAPGKERELVAAITQSGGRTYYADSVKGRFTISRDNAKNTVYLQMNSLKPEDTAVYYCNARGRRSGYISGYDYWGQGTQVTVSS | high polyreactivity
24 | QVQLVESGGGLVQAGGSLRLSCAASGSTFSRNAMGWYRQAPGKERELVAAITSGGRTYYADSVKGRFTISRDNAKNTVYLQMNSLKPEDTAVYYCAAVHRYPIHYDYWGQGTQVTVSS | low polyreactivity
25 | QVQLVESGGGLVQAGGSLRLSCAASGSTFSRYAMGWYRPAPGKERELVAAISGTDDSTYYADSVKGRFTISRDNAKNTVYLQMNSLKPEDTAVYYCAARLVESRYGFGYEYYYWGQGTQVTVSS | low polyreactivity
26 | QVQLVESGGGLVQAGGSLRLSCAASGSTFSRYAMGWYRPAPGKERELVATITRGGSTNYADSVKGRFTISRDNAQNTVYLQMTSLKPEDTAVYYCNKTARYVDGRGDYWGQGTQVTVSS | low polyreactivity
27 | QVQLVESGGGLVQAGGSLRLSCAASGSTFSRYAMGWYRQAPGKEREFVAAISRRAGGTYYADSVKGRFTISRDNAKNTVYLQMNSVKPEDTAVYYCAKVLPRDYIGRATYDYWGQGTQVTVSS | high polyreactivity
28 | QVQLVESGGGLVQAGGSLRLSCAASGSTFSRYAMGWYRQAPGKERELVAAISWSGASTYYADSVKGRFTISRDNAKNTVYLQMNRLKPEDTSVYYCAKVARQNWFRYYYDYWGQGTQVTVSS | high polyreactivity
29 | QVQLVESGGGLVQAGGSLRLSCAASGSTFSRYTMGWYRQAPGKEWELVAAISFRASSTYYADSVKGRFTISRDNAKNTVYLQMNSLKPEDTAVYYCAARNVFRYRWPIEYDYWGQGTQVTVSS | low polyreactivity
30 | QVQLVESGGGLVQAGGSLRLSCAASGSTFSSNAMGWYRQAPGKERELVAAIDRGGSTYYADSVKGRFTISRDNAKNTVYLQMNSLKPEDNAVYYCNAERETYDYWGQGTQVTVSS | low polyreactivity
31 | QVQLVESGGGLVQAGGSLRLSCAASGSTFSSNAMGWYRQAPGKERELVAAINRTGNTYYADSVKGRFTISRDNEKNTVYLQMNSLKPEDTAVYYCNTDLNLYRGGGYWGQGTQVTVSS | low polyreactivity
32 | QVQLVESGGGLVQAGGSLRLSCAASGSTFSSYAMGWYRQAPGKERELVAAINWSRTRTYYADSVKGRFTISRDNAKNTVYFQMNSVIPEDTAVYYCAAPGFGETADYDYWGHGTQVTVSS | low polyreactivity
33 | QVQLVESGGGLVQAGGSLRLSCAASGSTFSSYGMGWYRQAPGKERELVAAITSSGGSTYYADSVKGRFTISRDNAKNTVYLQMNSLKPEDTAVYYCAASDVIFWLYYYWGQGTQVTVSS | low polyreactivity
34 | QVQLVESGGGLVQAGGSLRLSCAASGSTFSSYVMGWYRQAPGKERELVAAISSIGGSTYYADSVKGRFTISRDNAKNTVYLQMNSLKPEDTAVYYCNADYVIYFGLYEYWGQGTQVTVSS | low polyreactivity
35 | QVQLVESGGGLVQAGGSLRLSCAASGSTFSTNVMGWYRQAPGKERELVAAISTIGGSTYADSVKGRFTISRDNAKNTVYLQMNSLKPEDTAVYYCAAVFRVRRKTYGYWGQGTQVTVSS | high polyreactivity
36 | QVQLVESGGGLVQAGGSLRLSCAASGSTFSTYAMGWYRQAPGKERELVAAISRTGGSTYYADSVKGRFTISRDNAKNTVYLQMNSLKPEDTAVYYCAADEDWEYWAPWYDYWGQGTQVTVSS | low polyreactivity
37 | QVQLVESGGGLVQAGGSLRLSCAASGSTFSTYAMGWYRQAPGKERELVARITRSDTGTYYADSVKGRFTISRDNAKNTGYLQMNSLKPEDTAVYYCAADGWYDDSGWYYGYDYWGQGTQVTVSS | low polyreactivity
38 | QVQLVESGGGLVQAGGSLRLSCAASGSTFSTYVMGWYRQAPGKERELVATISYSSDSTYYADSVKVRFTISRDNAKNTVYLQMNSLKPEDSAVYYCNAARFTRRDYWGQGTQVTVSS | high polyreactivity
39 | QVQLVESGGGLVQAGGSLRLSCAASGSTFSVNAMGWYRQAPGKERELVAAITRSGGSTYYEDSVKGRFTISRENAKNTVYLQMNSLKPEDTAVYYCAAVIFPLGEYWGQGTQVTVSS | low polyreactivity
40 | QVQLVESGGGLVQAGGSLRLSCAASGSTFSVYAMGWYRQAPGKERELVAAITSGGSTNYADSVKGRFTISRDNAKNTVYLQMNSLKPEDTAVYYCAAYLYDTIYTSYREYDYWGQGTQVTVSS | low polyreactivity
41 | QVQLVESGGGLVQAGGSLRLSCAASGSTFSVYAMGWYRQAPGTERELVAAITWSGGSTYYADSVKGRFTISRDNAKNTDYLQMNSLKPEDTAVYDCNAEGYYVWGITTYWLHQYGYWGQGTQVTVSS | low polyreactivity
42 | QVQLVESGGGLVQAGGSLRLSCAASGSTFSVYGMGWYRQAPGKERELVAAITRGSRTYYADSVKGRFTISRDNAKNTVYLQMNSLKPEDTAVYYSAAKWWWRSYWGQGTQVTVSS | high polyreactivity
43 | QVQLVESGGGLVQAGGSLRLSCAASGSTFSVYTMGWYRQAPGKERELVAAISRSGGRTYYADSVKGRFTISRDNAKNTVYLQMNSVKPDDTAVYYCATGYYGTYDYWGQGTQVTVSS | high polyreactivity

Reference: the nanobody polyreactivity screen of Harvey et al. (2022)
